From paper PMC10021056 (Nature Communications, 2023)

T1: prefusion Hendra virus (HeV) F protein (Hendra virus, reference strain …)
T1 chain: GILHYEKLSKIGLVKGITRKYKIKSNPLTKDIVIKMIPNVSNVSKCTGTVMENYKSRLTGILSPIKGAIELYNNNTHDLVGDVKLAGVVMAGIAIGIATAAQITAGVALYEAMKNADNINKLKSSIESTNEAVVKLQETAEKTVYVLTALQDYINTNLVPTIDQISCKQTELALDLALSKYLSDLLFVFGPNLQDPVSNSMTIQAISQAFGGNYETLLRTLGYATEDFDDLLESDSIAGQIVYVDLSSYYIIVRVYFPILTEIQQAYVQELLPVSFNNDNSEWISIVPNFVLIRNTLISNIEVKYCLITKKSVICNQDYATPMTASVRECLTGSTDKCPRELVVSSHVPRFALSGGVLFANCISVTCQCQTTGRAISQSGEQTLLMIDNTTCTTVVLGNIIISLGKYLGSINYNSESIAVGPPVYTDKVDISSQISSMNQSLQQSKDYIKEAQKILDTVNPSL

T2: prefusion Hendra virus (HeV) F (Hendra virus, reference strain …, stabilised)
T2 chain: T1 chain

B1: Fab 2B12 (Fab, V domains shown)
V domain 1: EVQLVESGGGLVQPKGSLKLSCAASGFIFNTYAMHWVRQAPGKGLEWVARIRSKSSNYATYYADSVKDRFTISRDDSQSMLYLQMNNLKTEDTAMYYCVREGGYYFDYWGQGTTLTFSA
V domain 2: DIVMSQSPSSLAVSVGEKVTMSCKSSQSLLHVSNQKNYLAWYQQKPGQSPKLLIYWASTRESGVPDRFTGSGSGTDFTLTISSVKAEDLAVYYCQQYYSYPWPFGGGTKLKSN
B2: Fab 1F2 (Fab, V domains shown)
VH: EVQLQQSGPELVKPGVSLKISCKASGYSFTDYTMNWVKQSHGKNLEWIGLINPYIGGTRYNQKFKGKATLTVDKSSSTAYLELLSLTSEDSAVYYCARFSGSSNRAMDYWGQGTSVTVSS
VL: DIQMTQSPASLSASVGETVTITCGASENIYGALNWYQRKQGKSPQLLIYGATNLADGMSSRFSGSGSARQYSLKISSLHPDDVATYYCQNVLSIPWTFGGGTKLEIK
B3: Fab 4F6 (Fab, V domains shown)
VH: QVQLQQSGAELVKPGASVKLSCKASGYTFTSNWMHWVKQRPGRGLEWIGRIDPNSGGTKYNEKFKSKATLTVDKPSSTAYMQLSSLTSEDSAVYYCARDGHYAYFDVWAPGTTVTVSS
VL: DIVMTQSQKFMSTSVGDRVSVTCKASQNVGTTVAWYQQKPGQSPNALIYSASYRYTGVPDRFTGSGSGTDFTLTISNVQSEDLAEYFCQQYNRYPWTFGGGTKLEIK
B4: Fab 1H1 (Fab, V domains shown)
VH: VQLQQSGAELMRPGASMKISCKATGYTFSSYWIDWVKQRPGHGLEWIGEILPGSGDTNYNENFKGKAAFTADTSSNTAYMQLTSLTSEDSAVFYCARGGRYHGQGFFDYWGQGTTLTVSS
VL: IQMTQSPASLSASVGETVTITCRPSENVHIYLAWYQQKQGKSPQLLVYNAKTLADGVPSRFSGSASGTQFSLKINSLQPEDFGSYYCQHFWSIPYTFGGGTKLEIK
B5: Fab 2B12 (Fab, V domains shown)
V domain 1: B1 V domain 1
V domain 2: B1 V domain 2
notes: recombinant Fab of m9
B6: Fab 2D3 (Fab, V domains shown)
VH: QVQLKQSGPGLVAPSQSLSITCTVSGFSLTSYALSWVRQPPGKGLEWLGVIWVGGVTNYNSALKSRLTISKDNSKSQVFLKMNSLQSEDTARYYCASRHLSTGAMDYWGQGTSVTVSA
VL: DVLMTQSPLSLPVSLGDQASISCRSSQSIVHSNGDTYFEWYLQKPGQSPKLLIYKVSNRFSGVPNRFSGSGSGTDFTLKISRVEAEDLGVYYCFQGSYVPYTFGGGTKLEIK
notes: recombinant Fab of m5
B7: Fab 1A9 (Fab, V domains shown)
VH: QVQLQQSGAELVRPGTSVKISCKASGYTFTNYWLGWVKQRPGHGLEWIGDIYRGGGYTNYNEKFKGKATLTADTSSSTAYMQLSSLTSEDSAVYFCATRDGYFDYWGQGTTLTVSS
VL: DIQMTQSSSSFSVSLGDRTTITCKASEDIYNRLAWFQQKPGNAPRLLISGATSLETGVPSRFSGSGSGKDYTLSITSLQTEDVATYYCQQYWSSPWTFGGGTKLEIK
notes: recombinant Fab of m7
B8: Fab 1F2 (Fab, V domains shown)
VH: B2 VH
VL: B2 VL
notes: recombinant Fab of m12
B9: Fab 4F6 (Fab, V domains shown)
VH: B3 VH
VL: B3 VL
notes: recombinant Fab of m13
B10: Fab 1H8 (Fab, V domains shown)
VH: EVQLQQSGPELVKPGASVKISCKASGYSFTGYTMNWVKQSHGKNLEWIGLINPFIGGTRYNQKFKGKATLTVDKSSRTAYMELLSLTSEDSAVYYCAREADYDWYFDVWGAGTTVTVSS
VL: DIQMTQTTSSLSASLGDRVTISCRASQDISNYLHWYQQKPDGTVNLLIFYTSRLHSGVPSRFSGSGSGTDYSLTISNLEQEDIATYFCQQGNTLPRTFGGGTKLEIK
notes: recombinant Fab of m6
B11: Fab 1H1 (Fab, V domains shown)
VH: B4 VH
VL: B4 VL
notes: recombinant Fab of m8

Target: T1, prefusion Hendra virus (HeV) F protein
Assay: BLI
Conditions: both partners purified
B1: binds. B2: binds. B3: binds. B4: binds.

Target: T2, prefusion Hendra virus (HeV) F
Assay: BLI
Conditions: both partners purified
B5: binds. B6: binds. B7: binds. B8: binds. B9: binds. B10: binds. B11: binds.
